Assay results published in the nanobody polyreactivity screen of Harvey et al. (2022).

Experiment: yeast display, Sf9 membrane polyspecificity reagent, FACS + sequencing; frameworks hold sequencing errors
Outline: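 Nanobodies from a synthetic yeast display library (Saccharomyces cerevisiae BJ5465), induced 36–48 hours with galactose, were stained 1 hour at 4 °C with 10% biotinylated, detergent-solubilized Sf9 membrane reagent, enriched on streptavidin microbeads, then FACS-sorted. Anti-HA (expression) and streptavidin (reagent binding) fluorescence set low and high (top ~1%) gates. Polyreactivity labels come from the gate of origin. Genes were colony-PCR amplified, MiSeq 2 × 250 sequenced and filtered by CDR length.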

| Sequence | polyreactivity (PSR sort gate) |
| --- | --- |
| QVQLVESGGGLVQAGGSLRLSCAASGSIFRGYAMGWYRQAPGKERELVAAINWSGSSTYYADSVKGRFTISRDNAKNTVYLQMYSMKPEDSAVYYCALVYYNRNLGGDYWGQGTQVTVSS | low polyreactivity |
| QVQLVESGGGLVQAGGSLRLSCAASGSIFRGYAMGWYRQATGKERELVATIDSSAGSTYYADSVKGRFTISRDNAKNTVYLQMHSLKPEDTAVYYCATDPYGYYYSGFDYWGQGTQVTVSS | low polyreactivity |
| QVQLVESGGGLVQAGGSLRLSCAASGSIFRGYAMGWYRQEPEKERELVAAMSRRGGSTYYADSVKGRFSISRDNAKNTVYLQMNSLKPEDTAVYYCAKDGTGAGNYDYWGQGTQVTVSS | low polyreactivity |
| QVQLVESGGGLVQAGGSLRLSCAASGSIFRGYTMGWYRQAPGKERELVAAISRSGGSTYYADSVKGRFTISRDNAKNTVYIQMNSLKPEDTAVYYCNVVYFVTTSPGYDYWGQGTQVTVSS | high polyreactivity |
| QVQLVESGGGLVQAGGSLRLSCAASGSIFRHNAMGWYRQAPGKERELVAAITSRGGSTYYADSVKGRFTISRDNAKNTVYLQMNSLKPEDTAVYYFAADYSSLSWGYDYWGQGTQVTVSS | high polyreactivity |
| QVQLVESGGGLVQAGGSLRLSCAASGSIFRHYAMGWYSQAPGKERELVASITLRGGSTYYADSVKGPFTISRDNAKNTVYLQMNSLKPEDTAVYYCAKRAGPEYDYWGQGTQVTVSS | low polyreactivity |
| QVQLVESGGGLVQAGGSLRLSCAASGSIFRHYTMGWYRQAPGIERELVAVISSGGNTNYADSVKGRFTISRDNAKNTVYLQMNSLKPEDTAVDDCAARSHRYYSRVNYWGQGTQVTVSS | high polyreactivity |
| QVQLVESGGGLVQAGGSLRLSCAASGSIFRINAMGWYRQAPGKEREFVAAIRGSGGRTYYADSVKGRFTISRDNAKNTVYLQMNSLKPEDTAVYYCAADFSYRYFQRTSWPFDYWGQGTQVTVSS | high polyreactivity |
| QVQLVESGGGLVQAGGSLRLSCAASGSIFRINAMGWYRQAPGKERELVAAISTSGGTTYYADSVKGRFTISRDNAKNTVYLQMNSLKPEDTAVYYCAARRVTSPFGSDSWGQGTQVTVSS | low polyreactivity |
| QVQLVESGGGLVQAGGSLRLSCAASGSIFRIYAMGWYRQAPGKERELVAAISTSGVRTYYADSVKGRFTISRDNAKNTVYLQMNSLKPEDTAVYYCNARYVRPRGTGDFDYWGQGTQVTVSS | high polyreactivity |
| QVQLVESGGGLVQAGGSLRLSCAASGSIFRIYAMGWYRQAPGKERELVAAITKRGGSTYYADSVKGRFTISRDNAKNTVYLQMNSLKPEDTAVYYCAARFYSGYSYDYWGHGTQVTVSS | high polyreactivity |
| QVQLVESGGGLVQAGGSLRLSCAASGSIFRKKAMGWYRQAPGKERELVAAITGTGRTTYADSVKGRFTISRDNAKNTVYLQMNSLKPEDTAVYYCAAEYYYRYSYTNEGDYWGQGTQVTVSS | low polyreactivity |
| QVQLVESGGGLVQAGGSLRLSCAASGSIFRKNAMGWSRPAPGKERELVAVSTSSGASTYYADSVKGRFTISRDNAKNTVYVQMNSLKPEETAVYYCNAPSFYTKKMYSWGQGTQVTVSS | high polyreactivity |
| QVQLVESGGGLVQAGGSLRLSCAASGSIFRKNAMGWYRQAPGKERELVAAISSGGGGTYYADSVKGRFTISRDNAKNTVYLQMNSLKPEDTAVYYCNKREGKGGNTKYDYWGLGTQVTVSS | low polyreactivity |
| QVQLVESGGGLVQAGGSLRLSCAASGSIFRKNAMGWYRQAPGKERELVATISGGGSTTYADSVKGRFTISRDNAKNTVYLQMNSLKPEDTAVYYCAARSTWFQIRYGYWGQGTQVTVSS | high polyreactivity |
| QVQLVESGGGLVQAGGSLRLSCAASGSIFRKYAMGWYRQATGKERELVAVITTDGSTNYADSVKGRFTISRDNAKNTVYLQMNSLKPEDTAVYYCNAVRSSIGTDNDYWGQGTQVTVSS | low polyreactivity |
| QVQLVESGGGLVQAGGSLRLSCAASGSIFRLYAKGSYRQAPGKERELVARITTGGSTNYADSVKGRFTISRDNANNTVYLQMNSLKPEDTAVYYSWGVPRRYYYWGQGTQVTVSS | high polyreactivity |
| QVQLVESGGGLVQAGGSLRLSCAASGSIFRLYAKGWYIQAPGKERELVAAISSGGSTYYADSVKGRFTISRDNAKNTVYLQMNSLKPEDTAVYYCNTAWTYWRYDYWGQGTQVTVSS | high polyreactivity |
| QVQLVESGGGLVQAGGSLRLSCAASGSIFRLYVMGWYRQAPGKERELVAAITLSGGSTYYADSVKGRFTISRDNAENTVYLQMNSLKPEDTAVYYCNRVTLYDITFDYWGQGTQVTVSS | low polyreactivity |
| QVQLVESGGGLVQAGGSLRLSCAASGSIFRNNTMGWYRQAPGKERELVAAISGRGTRTSYADSVKGRFTISRDNAKNTVYLQMNSLKPEDTAVYYCAAVYYWRPGWYVRFDYWGQGTQVTVSS | low polyreactivity |
| QVQLVESGGGLVQAGGSLRLSCAASGSIFRNYAMGWYRQAPGKERELVAAISRSGSSTFYADSVKGRFTISRDNAKNTVYLQMNSLKPEDTAVYYCAAVDYYTLTGYRYYWGQGTQVTVSS | high polyreactivity |
| QVQLVESGGGLVQAGGSLRLSCAASGSIFRNYAMGWYRQAPGKERELVASIRYSGGRTNYADSVKGRFTISRDNAKNTVYLQMNSLKPEDTAVYYCAADPGYGWQRAYYYWGQGTQVTVSS | high polyreactivity |

| Sequence | polyreactivity (PSR sort gate) |
| --- | --- |
| QVQLVESGGGLVQAGGSLRLSCAASGSIFRPNAMGWNRQAPGKERELVAAINTSDDSTYYADSVKGRFTISRDNAKNTVYLQMNSLKPEDSAVYYCAADPRTYWTHSYYWGQGTQVTVSS | low polyreactivity |
| QVQLVESGGGLVQAGGSLRLSCAASGSIFRPNAMRWYRQAPGKERELVAAISSGDSTNYADSVKGRFTISRDNAKNTVYLLMNSLKAEDTAVYYCNTDKYSESYRSYEYWGQGTQVTVSS | low polyreactivity |
| QVQLVESGGGLVQAGGSLRLSCAASGSIFRPNTMGWYRQATGKERELVADIRYRGGGTYYADSVKGRFTITRDNATNTVYLQMNSLKPEDTAVYYCAKASAQWVQFDFWGQGNQVTVSS | high polyreactivity |
| QVQLVESGGGLVQAGGSLRLSCAASGSIFRPYAMGWYRQAPGKERELVAGITFIGGSTYYADSVKGRFTISRDNAKNTVYLQRNSLKPEDTAVYYCNADVAPGIFYGYDSWGQGTQVTVSS | low polyreactivity |
| QVQLVESGGGLVQAGGSLRLSCAASGSIFRPYAMGWYRQAPGKERVLVAAISRRGGSTYYADSVKGRFTISRDNAKNTVYLQMNSLKPEDTAVYYCAADHSRPSPYGYGYWGQGTQVTVSS | high polyreactivity |
| QVQLVESGGGLVQAGGSLRLSCAASGSIFRRNAMGWYRQAPGKERELVAAISSIGSSTYYADSVKGRFTISRDNAKNTVYLQMNSLKPEDTAVYYCAALYVQGTHTYGYWGQGTQVTVSS | high polyreactivity |
| QVQLVESGGGLVQAGGSLRLSCAASGSIFRRNAMGWYRQAPGKERELVAAITWRGDRTYYADSVKGRFTISRDNAKNTVYLQMNSLKPEDTAVYYCNKLGRIQYDYWGQGTQVTVSS | high polyreactivity |
| QVQLVESGGGLVQAGGSLRLSCAASGSIFRRYAMGWYRQAPGKEREFVAAITRSGGGTYYADSVKGRFTISRDNAKNTVYLQMNSLKPEDTAVYYCAADAPNFGLYRDKDYDYWGQGTQVTVSS | high polyreactivity |
| QVQLVESGGGLVQAGGSLRLSCAASGSIFRRYAMGWYRQAPGKERELVAAISRSGSSTYADSVKGRFTISRDNEKNTVYLQMNSLKPEDTEVYYCNRVRLNTEGFDYWGQGTQVTVSS | low polyreactivity |
| QVQLVESGGGLVQAGGSLRLSCAASGSIFRRYDMGWYRQAPGTERELVAAISSSGGSTYYADSVKGRFTISRDNAKNTVYLQMNILKPEDTAVYYCNTASNRYPGWRAEFDYWGQGTQVTVSS | low polyreactivity |
| QVQLVESGGGLVQAGGSLRLSCAASGSIFRSNAMGWYRPAPGKERELVAAISRRGGSTYYADSVKGRFTISRDNAKNPVYLQMNSLKPEDTAVYYCAAPTIVSGHDSWGQGTQVTVSS | high polyreactivity |
| QVQLVESGGGLVQAGGSLRLSCAASGSIFRSNAMGWYRQAPGKERELVAAITSGTRKYYADSVKGRFTISRDNAKNTVYLQMNSLKPEDTAVYYCATKGSKYDRGYWGQGTQVTVSS | high polyreactivity |
| QVQLVESGGGLVQAGGSLRLSCAASGSIFRSNAMGWYRQPPGKERELVAAITLSGGSTYYADSVKVRFTISRDNAKNTVYLQMNSLKPEDTAVYYCAAAYYLFSIHDYWGQGNQVTVSS | low polyreactivity |
| QVQLVESGGGLVQAGGSLRLSCAASGSIFRSNTMGWSRQAPGKERELVARISSTGGSTYYADSVKGRFTISRDNAKKTVYLQLNSLKPEDTAVYYCNKVRGINHLYDMNYWGQGTQVTVSS | high polyreactivity |
| QVQLVESGGGLVQAGGSLRLSCAASGSIFRSYALGWYRQSPGKERELVASISRRGGSTYYADSVKGRFTISRDNAKNTVYLQMNSLKPEDTAVYYCAAVRYNSRVSTTPSEMYYWGQGTQVTVSS | low polyreactivity |
| QVQLVESGGGLVQAGGSLRLSCAASGSIFRSYAMGWYRQAPGKERELVAAISRRGSSTYYADSVKGRFTISRDNAKNTVYLQMNSLKPEDTAVYYCNRVRYPRVDYWGQGTQVTVSS | high polyreactivity |
| QVQLVESGGGLVQAGGSLRLSCAASGSIFRSYAMGWYRQAPGKERELVASITRSSGSTYYADSVKGRFTISRDNAKNTVYLQMNSLKPEDTAVYYCNAVVSKSRRFRVDYWGQGTQVTVSS | high polyreactivity |
| QVQLVESGGGLVQAGGSLRLSCAASGSIFRSYAMGWYRQSPGKERELVASISRRGGSTYYADSVKGRFTISRDNAKNTVYLQMNSLKPEDTAVYYCAAVRYNSRVSTTPSDMYYWGQGTQVTVSS | low polyreactivity |
| QVQLVESGGGLVQAGGSLRLSCAASGSIFRTYAKGWYRQAPGKERELVATITFGGVSTYYADSVKGRFTISRDNAKNTVYLQMNSLKPEDTAVYYCAADVYTRFWRVYRFDYWGQGTQVTVSS | low polyreactivity |
| QVQLVESGGGLVQAGGSLRLSCAASGSIFRTYAMGWYRQAPGKERELVATITFGGVSTYYADSVKGRFTISRDNAKITVYLQMNSLKPEDTAVYYCAADVYTRFWRVYRFDYWGQGTQVTVSS | low polyreactivity |
| QVQLVESGGGLVQAGGSLRLSCAASGSIFRTYAMGWYRQAPGKERELVATITFGGVSTYYADSVKGRFTISRDNAKTTVYVQKTSLKPEDTAVYYCAAEVYTRFWRVYRFDYWGQGTQVTVSS | low polyreactivity |
